Paper PMC8519878 (Cell Reports, 2021)

Target: SARS-CoV-2 S2P spike (SARS-CoV-2, ancestral spike (P0DTC2 …, stabilised))
Test: cryo-EM structure

B1: antigen-binding fragment (Fab) of antibody 5-7, expressed as Fab (Fab, V domains shown)
VH: QVQLVQSGAEVKKPGASVKVSCKASGYTFTSYYMHWVRQAPGQGLEWMGVINPSGGSTSYAEKFRGRVTMTRDTSTSTVYMELSSLRSEDTAVYYCARDREPHSDSSGYWDSLKYYYYYALDVWGQGTTVTVSS
VL: AIQLTQSPSSLSASVGDRVTITCRASQGISSYLAWYQQKPGKAPELLIYAASTLQSGVPSRFSGSGSGTDFTLTISSLQPEDFATYYCQQLNTYPFTFGPGTKVDIK
With B1 the “stoichiometry N” value was 3 Fabs per trimer.
